Measured values from the RNAGym collection of RNA variant scans (doi:10.7554/elife.80360).

B1: CPEB3 Ribozyme (parent)
chain: GGGGGCCACAGCAGAAGCGUUCACGUCGCGGCCCCUGUCAGAUUCUGGUGAAUCUGCGAAUUCUGCUGU

Variants of: B1
Assay: self-cleavage, relative activity (ratio to wild type); higher = more cleavage; co-transcriptional

Variant	self-cleavage
GGGGGCCACAGCAGAAGCGUUCACGUCGCGGCCUCUGUCAGAUUCUGGUGGAUCUGCGAAUUCUGCUGU [C34U A51G]	1.01
GGGGGCCACAGCAGAAGCGUUCACGUCGCGGCCUCUGUCAGAUUCUGGUGUAUCUGCGAAUUCUGCUGU [C34U A51U]	0.957
GGGGGCCACAGCAGAAGCGUUCACGUCGCGGCCUCUGUCAGAUUCUGGUGCAUCUGCGAAUUCUGCUGU [C34U A51C]	0.985
GGGGGCCACAGCAGAAGCGUUCACGUCGCGGCCGCUGUCAGAUUCUGGUGAAUCUGCGAACUCUGCUGU [C34G U61C]	0.423
GGGGGCCACAGCAGAAGCGUUCACGUCGCGGCCUCUGUAAGAUUCUGGUGAAUCUGCGAAUUCUGCUGU [C34U C39A]	0.834
GGGGGCCACAGCAGAAGCGUUCACGUCGCGGCCUCUGUUAGAUUCUGGUGAAUCUGCGAAUUCUGCUGU [C34U C39U]	0.943
GGGGGCCACAGCAGAAGCGUUCACGUCGCGGCCUCUGUGAGAUUCUGGUGAAUCUGCGAAUUCUGCUGU [C34U C39G]	0.973
GGGGGCCACAGCAGAAGCGUUCACGUCGCGGCCUCUGUCAGAUUCUGGUGAUUCUGCGAAUUCUGCUGU [C34U A52U]	0.975
GGGGGCCACAGCAGAAGCGUUCACGUCGCGGCCUCUGUCAGAUUCUGGUGACUCUGCGAAUUCUGCUGU [C34U A52C]	0.958
GGGGGCCACAGCAGAAGCGUUCACGUCGCGGCCGCUGUCAGAUUCUGGUGAAUCUGCGAAUUCUGCCGU [C34G U67C]	0.766
GGGGGCCACAGCAGAAGCGUUCACGUCGCGGCCGCUGUCAGAUUCUGGUGAAUCUGCGAAUUCUGCGGU [C34G U67G]	0.894
GGGGGCCACAGCAGAAGCGUUCACGUCGCGGCCUCUGUCAGCUUCUGGUGAAUCUGCGAAUUCUGCUGU [C34U A42C]	0.843
GGGGGCCACAGCAGAAGCGUUCACGUCGCGGCCUCUGUCAGGUUCUGGUGAAUCUGCGAAUUCUGCUGU [C34U A42G]	0.932
GGGGGCCACAGCAGAAGCGUUCACGUCGCGGCCUCUGUCAGUUUCUGGUGAAUCUGCGAAUUCUGCUGU [C34U A42U]	0.924
GGGGGCCACAGCAGAAGCGUUCACGUCGCGGCCUCUGUCAGAUUCUGGUGAAUGUGCGAAUUCUGCUGU [C34U C54G]	0.819
GGGGGCCACAGCAGAAGCGUUCACGUCGCGGCCUCUGUCAGAUUCUGGUGAAUAUGCGAAUUCUGCUGU [C34U C54A]	0.809
GGGGGCCACAGCAGAAGCGUUCACGUCGCGGCCUCUGUCAGAUUCUGGUGAAUUUGCGAAUUCUGCUGU [C34U C54U]	0.985
GGGGGCCACAGCAGAAGCGUUCACGUCGCGGCCGCUGUCAGAUUCUGGUGAAUCUGCGAAUUCUGCUGA [C34G U69A]	0.886
GGGGGCCACAGCAGAAGCGUUCACGUCGCGGCCGCUGUCAGAUUCUGGUGAAUCUGCGAAUUCUGCUGC [C34G U69C]	0.971
GGGGGCCACAGCAGAAGCGUUCACGUCGCGGCCGCUGUCAGAUUCUGGUGAAUCUGCGAAUACUGCUGU [C34G U62A]	0.453

Variant	self-cleavage
GGGGGCCACAGCAGAAGCGUUCACGUCGCGGCCGCUGUCAGAUUCUGGUGAAUCUGCGAAUCCUGCUGU [C34G U62C]	0.316
GGGGGCCACAGCAGAAGCGUUCACGUCGCGGCCGCUGUCAGAUUCUGGUGAAUCUGCGAAUGCUGCUGU [C34G U62G]	0.477
GGGGGCCACAGCAGAAGCGUUCACGUCGCGGCCUCUGUCAGAUUCUGGUGAAUCUGCGGAUUCUGCUGU [C34U A59G]	0.899
GGGGGCCACAGCAGAAGCGUUCACGUCGCGGCCUCUGUCAGAUUCUGGUGAAUCUGCGCAUUCUGCUGU [C34U A59C]	0.661
GGGGGCCACAGCAGAAGCGUUCACGUCGCGGCCGCUGUCAGAUUCUGGUGAAUCUGCGAAUUCCGCUGU [C34G U64C]	0.402
GGGGGCCACAGCAGAAGCGUUCACGUCGCGGCCGCUGUCAGAUUCUGGUGAAUCUGCGAAUUCGGCUGU [C34G U64G]	0.35
GGGGGCCACAGCAGAAGCGUUCACGUCGCGGCCGCUGUCAGAUUCUGGUGAAUCUGCGAAUUCAGCUGU [C34G U64A]	0.384
GGGGGCCACAGCAGAAGCGUUCACGUCGCGGCCUCUGUCUGAUUCUGGUGAAUCUGCGAAUUCUGCUGU [C34U A40U]	0.838
GGGGGCCACAGCAGAAGCGUUCACGUCGCGGCCUCUGUCGGAUUCUGGUGAAUCUGCGAAUUCUGCUGU [C34U A40G]	0.963
GGGGGCCACAGCAGAAGCGUUCACGUCGCGGCCUCUGUCCGAUUCUGGUGAAUCUGCGAAUUCUGCUGU [C34U A40C]	0.602
GGGGGCCACAGCAGAAGCGUUCACGUCGCGGCCUGUGUCAGAUUCUGGUGAAUCUGCGAAUUCUGCUGU [C34U C35G]	0.313
GGGGGCCACAGCAGAAGCGUUCACGUCGCGGCCUAUGUCAGAUUCUGGUGAAUCUGCGAAUUCUGCUGU [C34U C35A]	0.194
GGGGGCCACAGCAGAAGCGUUCACGUCGCGGCCUUUGUCAGAUUCUGGUGAAUCUGCGAAUUCUGCUGU [C34U C35U]	0.736
GGGGGCCACAGCAGAAGCGUUCACGUCGCGGCCUCUGUCAGAUUUUGGUGAAUCUGCGAAUUCUGCUGU [C34U C45U]	1.03
GGGGGCCACAGCAGAAGCGUUCACGUCGCGGCCUCUGUCAGAUUGUGGUGAAUCUGCGAAUUCUGCUGU [C34U C45G]	0.992
GGGGGCCACAGCAGAAGCGUUCACGUCGCGGCCUCUGUCAGAUUCUGGUGAAUCUGCGAAUUCUGCUGU [C34U]	0.991
GGGGGCCACAGCAGAAGCGUUCACGUCGCGGCCUCUGUCAGAUUCUGGUGAAUCUGCGAGUUCUGCUGU [C34U A60G]	0.789
GGGGGCCACAGCAGAAGCGUUCACGUCGCGGCCUCUGUCAGAUUCUGGUGAAUCUGCGAUUUCUGCUGU [C34U A60U]	0.452
GGGGGCCACAGCAGAAGCGUUCACGUCGCGGCCUCUGUCAGAUUCUGGUGAAUCUGCGACUUCUGCUGU [C34U A60C]	0.371
